The values below come from PMC3845372.

The target of this data set is RecA (RecAEc) (Escherichia coli, UniProt P0A7G6 2-353). Put plainly: fluorescence anisotropy.
Chain of RecA (RecAEc) (P0A7G6 2-353): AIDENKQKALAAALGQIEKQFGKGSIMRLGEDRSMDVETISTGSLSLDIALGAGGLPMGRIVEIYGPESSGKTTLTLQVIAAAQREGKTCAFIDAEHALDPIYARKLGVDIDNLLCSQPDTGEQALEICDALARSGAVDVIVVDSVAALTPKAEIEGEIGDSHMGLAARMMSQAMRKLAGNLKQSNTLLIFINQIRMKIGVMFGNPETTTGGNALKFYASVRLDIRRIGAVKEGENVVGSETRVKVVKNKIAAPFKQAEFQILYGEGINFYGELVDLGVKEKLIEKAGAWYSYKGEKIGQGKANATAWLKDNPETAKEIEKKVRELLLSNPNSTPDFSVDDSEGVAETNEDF

B1: dimeric pilE G4 (NG16 core) (structured_DNA)
DNA: GGGTGGGTTGGGTGGG
With B1, the binding result is given as “no binding”.

B2: oligo dT16 (ssDNA)
DNA: TTTTTTTTTTTTTTTT
With B2, the Kd is 640 ± 260 nM.

As usually defined, the Kd is the concentration at which binding is half-saturated.
